Data from patent US20250026787A1 (GLO PHARMA, published 2025).
Square brackets hold non-standard residues; d marks the D form. Ends that are not written are not given here.

Legend:
[1] = biological target: T1, Human recombinant melanocortin MC1 receptor (human, UniProt Q01726 1-317); assay: radioligand competition, displacement of [125I]NDP-alpha-MSH from human MC1R (CHO-K1), Example 7
T1 construct: whole, on cells; Eurofins Discovery assay Item 251100; a 3 ug aliquot of receptors from CHO-K1 cells was incubated, filtered and washed (probably a membrane preparation); also called Melanocortin 1 Receptor; MCIR
Experimental: (§1) The binding of Group A MCIR peptide antagonists of the disclosure was evaluated in a competition assay (MC1 Human Melanocortin GPCR Binding (Agonist Radioligand) Assay, Item 251100, Eurofins Discovery). Peptides were synthesized by AnaSpec (Fremont, CA). Human recombinant melanocortin MCI receptors were expressed in CHO-K1 cells in modified HEPES-KOH buffer pH 7.0. A 3 μgs aliquot was incubated with 0.04 nM [¹²⁵I]NDP-α-MSH for 120 minutes at 37° C. Non-specific binding was estimated in the presence of 1 μM NDP-α-MSH. Receptors were filtered and washed, and the filters counted to determine [¹²⁵I]NDP-α-MSH specifically bound. Peptide antagonists of the disclosure having amino acid sequences as set forth in SEQ ID NOS: 11, 16, 25, 27, 32, 35, and 40 were screened at five concentrations. Inhibition curves were obtained by determining the reduction of bound α-MSH in the presence of an amount of, and/or by increasing amounts of, each peptide antagonist.

[2] = biological target: T1, Human recombinant melanocortin MC1 …; assay: radioligand competition, displacement of [125I]NDP-alpha-MSH from human MC1R (CHO-K1), Example 1
Experimental: as §1, with “determine [¹²⁵I] NDP-α-MSH” for “determine [¹²⁵I]NDP-α-MSH”, “40 (each having a C-terminal —NH2)” for “40”, “five concentrations, as well as a positive control, SEQ ID NO: 1 (Melanostatine-5).” for “five concentrations.”, “antagonist. Non-specific binding of peptide was estimated separately in the presence of a vast excess (1 mM) of unlabeled α-MSH, which occupies all the available receptor binding sites.” for “antagonist.”
Based on the competitive binding curve, the IC₅₀ values were determined (Eurofins or AAT Bioquest IC₅₀ calculator). […]

T1 sequence (Q01726 whole entry): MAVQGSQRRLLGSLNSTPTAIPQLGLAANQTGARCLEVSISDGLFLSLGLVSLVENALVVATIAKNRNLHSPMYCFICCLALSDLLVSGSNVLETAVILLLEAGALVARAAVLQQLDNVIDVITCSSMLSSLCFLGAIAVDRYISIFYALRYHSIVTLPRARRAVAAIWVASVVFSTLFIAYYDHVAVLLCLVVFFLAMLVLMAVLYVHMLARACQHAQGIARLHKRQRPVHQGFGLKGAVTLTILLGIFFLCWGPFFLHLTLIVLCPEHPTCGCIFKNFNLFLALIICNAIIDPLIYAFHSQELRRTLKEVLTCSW

Binder | IC50 [1] [nM] | IC50 [2] [nM]
IFR[dW]FKPV-NH2 (N-terminus assumed; SMILES CC[C@H](C)[C@H](N)C(=O)N[C@@H](Cc1ccccc1)C(=O)N[C@@H](CCCNC(=N)N)C(=O)N[C@H](Cc1c[nH]c2ccccc12)C(=O)N[C@@H](Cc1ccccc1)C(=O)N[C@@H](CCCCN)C(=O)N1CCC[C@H]1C(=O)N[C@H](C(N)=O)C(C)C, Printed as Ile-Phe-Arg-dTrp-Phe-Lys-Pro-Val-NH2 (8 residues)) [SEQ ID NO: 32] | < 200 | –
MVFR[dW]FKPV-NH2 (N-terminus assumed; SMILES CSCC[C@H](N)C(=O)N[C@H](C(=O)N[C@@H](Cc1ccccc1)C(=O)N[C@@H](CCCNC(=N)N)C(=O)N[C@H](Cc1c[nH]c2ccccc12)C(=O)N[C@@H](Cc1ccccc1)C(=O)N[C@@H](CCCCN)C(=O)N1CCC[C@H]1C(=O)N[C@H](C(N)=O)C(C)C)C(C)C, Printed as Met-Val-Phe-Arg-dTrp-Phe-Lys-Pro-Val-NH2) [SEQ ID NO: 27] | > 500 | –
FV[dF]R[dW]FKPV-NH2 (N-terminus assumed; SMILES CC(C)[C@H](NC(=O)[C@@H]1CCCN1C(=O)[C@H](CCCCN)NC(=O)[C@H](Cc1ccccc1)NC(=O)[C@@H](Cc1c[nH]c2ccccc12)NC(=O)[C@H](CCCNC(=N)N)NC(=O)[C@@H](Cc1ccccc1)NC(=O)[C@@H](NC(=O)[C@@H](N)Cc1ccccc1)C(C)C)C(N)=O, Printed as Phe-Val-dPhe-Arg-dTrp-Phe-Lys-Pro-Val-NH2) [SEQ ID NO: 16] | < 200 | –
MP[dF]R[dW]FKPV (Printed as Met-Pro-D-Phe-Arg-D-Trp-Phe-Lys-Pro-Val; no terminal modification is printed for the control; also called control; positive control) [Melanostatine-5 / Nonapeptide-1 (SEQ ID NO: 1)] | < 200 | 120
EV[dF]R[dW]FKPV-NH2 (N-terminus assumed; SMILES CC(C)[C@H](NC(=O)[C@@H]1CCCN1C(=O)[C@H](CCCCN)NC(=O)[C@H](Cc1ccccc1)NC(=O)[C@@H](Cc1c[nH]c2ccccc12)NC(=O)[C@H](CCCNC(=N)N)NC(=O)[C@@H](Cc1ccccc1)NC(=O)[C@@H](NC(=O)[C@@H](N)CCC(=O)O)C(C)C)C(N)=O, Printed as Glu-Val-dPhe-Arg-dTrp-Phe-Lys-Pro-Val-NH2) [SEQ ID NO: 25] | > 500 | –
AV[dF]R[dW]FKPV-NH2 (N-terminus assumed; SMILES CC(C)[C@H](NC(=O)[C@@H]1CCCN1C(=O)[C@H](CCCCN)NC(=O)[C@H](Cc1ccccc1)NC(=O)[C@@H](Cc1c[nH]c2ccccc12)NC(=O)[C@H](CCCNC(=N)N)NC(=O)[C@@H](Cc1ccccc1)NC(=O)[C@@H](NC(=O)[C@H](C)N)C(C)C)C(N)=O, Printed as Ala-Val-dPhe-Arg-dTrp-Phe-Lys-Pro-Val-NH2) [SEQ ID NO: 11] | 200 to 500 | –
